± gives the uncertainty stated by the source.
Assay: protein stability index of a GFP-peptide fusion (yeast GPS) (PSI 1-4); higher = more stable; sorted into four equal gates, so the index is relative within each strain
Outline: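 Peptides tiling yeast proteins in 17-residue segments were fused downstream of GFP, with Cherry expressed from the same plasmid. As a pooled library in yeast, mid-log cultures grown in leucine-free medium were sorted into four equal gates by GFP/Cherry fluorescence ratio. Gate plasmids were PCR-amplified and Illumina-sequenced, and barcodes linked reads to strains. Each peptide received a protein stability index equal to the sum of each gate's read frequency times its gate number.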

| Sequence | protein stability index (doa10∆) | protein stability index (pdr5∆) | protein stability index (san1∆) | protein stability index (ubr1∆) |
| --- | --- | --- | --- | --- |
| YRNFMVNSYRLNPNEYF [SWI3] | 1.69 ± 0.12 | 1.45 ± 0.058 | 2.3 ± 0.1 | 2.46 ± 0.075 |
| NKLTGKQIVFEIPSQTN [RPS7B] | 2.79 ± 0.081 | 3.06 ± 0.13 | 2.88 ± 0.095 | 2.66 ± 0.086 |
| LRLTEQKSPKIRDPLTQ [RPC82] | 1.6 ± 0.071 | 1.66 ± 0.041 | 1.91 ± 0.12 | 1.92 ± 0.045 |
| TNYYLTTARNDLGVVFA [CSL4] | 2.04 ± 0.066 | 2.39 ± 0.078 | 2.51 ± 0.075 | 2.82 ± 0.072 |
| SEKQNDEEAAGASTVMK [PRP8] | 3.36 ± 0.15 | 3.18 ± 0.093 | 3.38 ± 0.11 | 3.43 ± 0.11 |
| DIDLETYSFIDNDRFNV [YML103C/NUP188] | 2.47 ± 0.064 | 2.54 ± 0.056 | 2.46 ± 0.081 | 2.21 ± 0.042 |
| SDNIASLQYINIRGNTI [SMD1] | 3.08 ± 0.059 | 3.22 ± 0.056 | 2.86 ± 0.063 | 3.01 ± 0.048 |
| KPNNTANTGGGLFGANS [YGL172W/NUP49] | 3.16 ± 0.14 | 3.28 ± 0.089 | 3.03 ± 0.072 | 3.08 ± 0.089 |
| SFQKNSLHNTEKIMENK [AAR2] | 3.08 ± 0.057 | 3.22 ± 0.066 | 2.93 ± 0.042 | 2.96 ± 0.049 |
| NKIKLNILKILSSLILK [SRB8] | 1.79 ± 0.072 | 1.73 ± 0.074 | – | 1.87 ± 0.053 |
| FPEENIIDAKTRNEQTT [MCD1] | 3.29 ± 0.09 | 3.16 ± 0.057 | 3.19 ± 0.052 | 3.08 ± 0.054 |
| KKFVSQIQKNVDLLQFP [POP3] | 2.65 ± 0.064 | 2.23 ± 0.073 | 3.34 ± 0.065 | 2.64 ± 0.053 |
| TTVFFSRQKSGLFDSFT [YML031W/NDC1] | 1.49 ± 0.042 | 1.45 ± 0.055 | 1.54 ± 0.11 | 1.55 ± 0.048 |
| DDFTDAIQFVKENELLF [YCS4] | 2.1 ± 0.082 | 2.04 ± 0.061 | 2.58 ± 0.16 | 1.92 ± 0.07 |
| PVLKKKAAFLGSEVRLR [COR1] | 2.91 ± 0.074 | 3.16 ± 0.071 | 2.97 ± 0.07 | 3.3 ± 0.078 |
| QELRKKVNPNIMNMIEN [SMC2] | 2.45 ± 0.13 | 2.72 ± 0.11 | 2.37 ± 0.13 | 2.47 ± 0.062 |
| FWSFLDSLIFKDSSLNY [YJL039C/NUP192] | 3.22 ± 0.076 | 2.74 ± 0.078 | 2.11 ± 0.15 | 2.46 ± 0.079 |
| FAVIYLCDIDEVSDFDE [DIB1] | 1.46 ± 0.13 | 2.16 ± 0.1 | 1.51 ± 0.17 | 1.64 ± 0.14 |
| QLDSYLVNGFSQSQQKL [MED2] | 2.02 ± 0.05 | 2.35 ± 0.063 | 2.38 ± 0.064 | 2.72 ± 0.046 |
| PIFSFGKQEENGDEGDD [YOR098C/NUP1] | 3.63 ± 0.14 | 3.65 ± 0.17 | 3.55 ± 0.096 | 3.32 ± 0.14 |
| HILAVKKMMNTLVHTRV [SSN2] | 2.25 ± 0.056 | 2.03 ± 0.062 | 2.06 ± 0.086 | 1.34 ± 0.059 |
| MNRPGARVTRRKRCKGT [RPL11A] | 3.05 ± 0.21 | 3.25 ± 0.13 | 3.46 ± 0.081 | 3.15 ± 0.13 |
| ASAGSKEGASTNWDDHA [YMR153W/NUP53] | 3.26 ± 0.13 | 3.49 ± 0.14 | 3.27 ± 0.077 | 3.42 ± 0.11 |
| SRILYKAIRGMVSHKTA [RPL16B] | 1.26 ± 0.057 | 1.2 ± 0.066 | 1.22 ± 0.16 | 1.25 ± 0.063 |
| GELGEIRALQPKLKEGA [YIL149C/MLP2] | 3.15 ± 0.11 | 3.34 ± 0.19 | 2.81 ± 0.15 | 3.36 ± 0.093 |
| SLNTKKNEKLILEESLN [SMC3] | 2.18 ± 0.064 | 2 ± 0.074 | 2.59 ± 0.15 | 2.6 ± 0.078 |

| Sequence | protein stability index (doa10∆) | protein stability index (pdr5∆) | protein stability index (san1∆) | protein stability index (ubr1∆) |
| --- | --- | --- | --- | --- |
| LFHSCTRIQYVDFACCT [GRR1] | 2.56 ± 0.12 | 2.44 ± 0.067 | 2.2 ± 0.075 | 2.21 ± 0.063 |
| LAYRNYWTQYLGLFIHK [YJL039C/NUP192] | 1.94 ± 0.057 | 1.56 ± 0.037 | 1.9 ± 0.055 | 2.02 ± 0.039 |
| LVTQHKAKYNTPKYRLV [RPL5] | 1.43 ± 0.052 | 1.94 ± 0.064 | 1.76 ± 0.095 | 1.87 ± 0.058 |
| TFLESINGINWRFHTPQ [SIN4] | 2.4 ± 0.054 | 1.86 ± 0.048 | 1.93 ± 0.12 | 2.02 ± 0.043 |
| HKSGKLSVKIGNVVMDI [RPC53] | 1.53 ± 0.1 | 1.25 ± 0.073 | 1.07 ± 0.2 | – |
| VKKAVTVHSKSRTRAHA [RPL19A] | 3.2 ± 0.1 | 3.2 ± 0.13 | 2.67 ± 0.12 | 3.16 ± 0.1 |
| FLGYKAGMTTIVRDLDR [RPL3] | 2.48 ± 0.12 | 3.17 ± 0.18 | 2.93 ± 0.078 | 3.14 ± 0.1 |
| YEIRDIDQDIHGIVFQH [SSN2] | 2.5 ± 0.049 | 2.6 ± 0.056 | 2.72 ± 0.051 | 2.75 ± 0.033 |
| RPEQLSNIIHDESDTIS [SNF6] | 1.82 ± 0.09 | 2.58 ± 0.063 | 2.02 ± 0.11 | 2.32 ± 0.061 |
| LSGGGHDNHGNKLGNKR [CDC53] | – | – | – | 3.65 ± 0.23 |
| LHIHGSSNPLGITGNLD [COB] | 2.92 ± 0.087 | 2.91 ± 0.078 | 2.7 ± 0.05 | 2.66 ± 0.054 |
| PSIVFIDEIDAIGTKRY [RPT2] | – | 2.28 ± 0.14 | 2.14 ± 0.17 | 2.92 ± 0.19 |
| LLHNHLKSIESLKLENS [SMC2] | 1.4 ± 0.1 | 1.82 ± 0.11 | 1.24 ± 0.28 | 2.52 ± 0.21 |
| QNRRLAFEELEGSWDRG [PRP8] | 2.91 ± 0.17 | 3.31 ± 0.17 | 3.24 ± 0.15 | 3.31 ± 0.16 |
| KVVKTPGGILRAQHVKK [RPL34A] | 2.76 ± 0.074 | 2.83 ± 0.077 | 2.9 ± 0.064 | 2.71 ± 0.063 |
| KDGEIMLWNLAAKKAMY [ASC1] | 2.55 ± 0.071 | 1.87 ± 0.05 | 2.26 ± 0.067 | 1.76 ± 0.097 |
| AGALNLASPEVKVHMDS [DIS3] | 3.06 ± 0.083 | 3.4 ± 0.069 | 2.99 ± 0.07 | 3.04 ± 0.052 |
| VDVLGTHSQTGTQQSNM [SIR4] | 3.12 ± 0.18 | 2.91 ± 0.17 | – | 3.2 ± 0.067 |
| LVDENTDYLYRRLHDEN [YCS4] | 2.68 ± 0.056 | 2.64 ± 0.048 | 2.68 ± 0.063 | 2.24 ± 0.034 |
| VKEEYDIWQSRDQGNDS [YIL149C/MLP2] | – | 3.5 ± 0.19 | 3.33 ± 0.074 | 3.34 ± 0.11 |
| LAGMDVEDALDKDSTKE [FAS2] | 3.43 ± 0.27 | 3.72 ± 0.19 | – | – |
| QRDLYKRKEELVSTLTT [SMC2] | 2.14 ± 0.073 | 1.91 ± 0.063 | 2.64 ± 0.071 | 1.82 ± 0.053 |
| KILQKRSISKELIVSEE [SIR3] | 2.37 ± 0.064 | 2.52 ± 0.075 | 2.28 ± 0.066 | 2.37 ± 0.052 |
| IVQAKEPNLAAQQDSTN [ECM29] | 2.51 ± 0.11 | 2.88 ± 0.054 | 2.69 ± 0.1 | 2.75 ± 0.063 |
| HSQFMKDLKDDSIYTKP [YJL039C/NUP192] | 2.83 ± 0.045 | 3.02 ± 0.05 | 3.02 ± 0.044 | 2.93 ± 0.038 |
| LTYLYEMKNIRGPYLVI [SNF2] | 1.22 ± 0.059 | 1.32 ± 0.04 | 1.27 ± 0.098 | 1.22 ± 0.042 |
